From patent US20220177593A1 (published 2022) come the findings set out here.

Broadly, the Kd is the concentration at which binding is half-saturated. The EC50 is the midpoint of the concentration-response curve.

For one test, the target named is Axl (human, UniProt P30530 26-449, biotinylated (site not stated)). Put plainly: BLI. A general note: Biolayer interferometry detects binding as a change in optical thickness at a sensor tip.
The target of test [1] is human Axl expressed on the surface of cells (human, UniProt P30530 26-894). Put plainly: flow cytometry. On the technique in general: In flow cytometry, cells or beads pass a laser one at a time.
Test [2] has as its target recombinant human Axl-msFc (human, UniProt P30530 26-449). In words: ELISA; 4-P fit parameter C. (In an ELISA, binding on a coated surface is turned into a signal by an enzyme label.)

Sequence of recombinant human Axl-msFc (P30530 26-449): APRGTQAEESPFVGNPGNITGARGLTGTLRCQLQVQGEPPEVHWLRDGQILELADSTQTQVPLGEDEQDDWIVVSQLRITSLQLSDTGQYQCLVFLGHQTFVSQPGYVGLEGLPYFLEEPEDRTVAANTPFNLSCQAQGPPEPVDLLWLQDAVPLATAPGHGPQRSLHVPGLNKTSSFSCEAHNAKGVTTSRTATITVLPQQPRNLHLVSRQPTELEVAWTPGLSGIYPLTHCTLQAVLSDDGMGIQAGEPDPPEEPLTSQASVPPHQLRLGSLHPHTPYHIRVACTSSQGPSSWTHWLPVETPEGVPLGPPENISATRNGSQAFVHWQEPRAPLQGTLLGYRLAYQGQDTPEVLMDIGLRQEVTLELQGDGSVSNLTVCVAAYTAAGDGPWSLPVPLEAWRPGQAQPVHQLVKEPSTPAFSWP
Sequence of Axl (P30530 whole entry): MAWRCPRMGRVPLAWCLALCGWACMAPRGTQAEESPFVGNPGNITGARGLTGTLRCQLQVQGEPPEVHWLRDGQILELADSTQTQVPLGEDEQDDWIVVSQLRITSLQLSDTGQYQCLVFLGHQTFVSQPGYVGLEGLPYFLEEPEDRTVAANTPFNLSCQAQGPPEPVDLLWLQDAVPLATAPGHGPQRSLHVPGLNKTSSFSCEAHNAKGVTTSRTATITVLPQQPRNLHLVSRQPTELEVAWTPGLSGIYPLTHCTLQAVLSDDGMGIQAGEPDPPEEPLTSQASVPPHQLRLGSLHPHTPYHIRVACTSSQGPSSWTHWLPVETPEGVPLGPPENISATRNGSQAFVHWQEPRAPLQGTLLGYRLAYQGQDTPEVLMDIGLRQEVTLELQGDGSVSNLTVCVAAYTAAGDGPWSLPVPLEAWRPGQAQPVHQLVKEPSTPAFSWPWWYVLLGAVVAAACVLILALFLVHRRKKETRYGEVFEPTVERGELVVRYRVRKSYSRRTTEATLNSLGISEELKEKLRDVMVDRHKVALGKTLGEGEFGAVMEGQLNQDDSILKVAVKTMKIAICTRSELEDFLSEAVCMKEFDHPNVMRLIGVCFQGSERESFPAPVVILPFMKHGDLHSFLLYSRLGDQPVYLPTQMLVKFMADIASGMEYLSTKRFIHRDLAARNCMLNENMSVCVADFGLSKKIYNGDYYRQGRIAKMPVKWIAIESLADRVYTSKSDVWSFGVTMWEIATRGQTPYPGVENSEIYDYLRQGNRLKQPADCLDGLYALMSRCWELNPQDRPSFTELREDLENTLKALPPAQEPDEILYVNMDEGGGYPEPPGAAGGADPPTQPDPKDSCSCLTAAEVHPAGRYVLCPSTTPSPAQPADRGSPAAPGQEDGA
Sequence of human Axl expressed on the surface of cells (P30530 26-894): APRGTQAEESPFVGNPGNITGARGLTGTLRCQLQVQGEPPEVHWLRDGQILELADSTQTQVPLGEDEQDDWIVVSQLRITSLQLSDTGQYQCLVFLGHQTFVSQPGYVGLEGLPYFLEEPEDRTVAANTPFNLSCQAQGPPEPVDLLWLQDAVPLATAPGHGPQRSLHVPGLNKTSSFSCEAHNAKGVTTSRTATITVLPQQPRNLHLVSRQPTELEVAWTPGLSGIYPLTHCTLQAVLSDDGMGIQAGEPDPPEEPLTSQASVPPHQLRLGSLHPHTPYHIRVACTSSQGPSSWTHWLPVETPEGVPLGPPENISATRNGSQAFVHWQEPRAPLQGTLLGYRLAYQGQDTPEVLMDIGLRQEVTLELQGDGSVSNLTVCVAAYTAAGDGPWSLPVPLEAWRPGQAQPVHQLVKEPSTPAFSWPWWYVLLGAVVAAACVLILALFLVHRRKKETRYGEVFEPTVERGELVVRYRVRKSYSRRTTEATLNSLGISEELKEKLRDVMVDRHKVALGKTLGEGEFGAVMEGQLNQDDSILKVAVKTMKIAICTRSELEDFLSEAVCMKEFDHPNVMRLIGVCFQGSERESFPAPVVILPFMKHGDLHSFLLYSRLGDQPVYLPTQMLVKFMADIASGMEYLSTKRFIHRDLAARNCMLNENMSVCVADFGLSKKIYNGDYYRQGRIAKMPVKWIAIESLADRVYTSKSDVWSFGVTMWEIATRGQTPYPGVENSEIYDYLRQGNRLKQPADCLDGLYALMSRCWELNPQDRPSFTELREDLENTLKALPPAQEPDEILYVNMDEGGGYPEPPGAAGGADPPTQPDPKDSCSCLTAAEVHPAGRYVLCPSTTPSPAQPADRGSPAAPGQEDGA

B1: Ab301 (antibody, V domains shown)
VH: EVKLEASGGGLVQPGMSVKLSCTTSGFTFSDYWMEWVRQAPGKGLEWVAEIRNKVNNYATYYGKSVKGRFTISRDDSKSIVYLQMNSIRSEDTGIYYCNTLRLFAYWGQGTLVTVSA
VL: DIVMTQAPLSISVTPGESPSMSCRSSKSLLHRNGITYVYWYLQKPGKSPQLLIYRMSTLASGVPDRFSGSGSETDFTLKINKVEAEDVGIYYCGQLLENPYTFGAGTRLEIK
Consider B1, for which the Kd with Axl came to 0.466 nM. In addition, the concentration giving a half-maximal response (EC50) in test [1] was determined as 0.025 µg/mL; in test [2] it was 0.019 µg/mL.

B2: Ab303 (antibody, V domains shown)
VH: EVQLVESGGGVVQPGRSLRLSCAASGFTFSDYWMEWVRQAPGKGLEWVAEIRNKVNNYATYYGKSVKGRFTISRDNSKNTLYLQMNSLRAEDTAVYYCNTLRLFAYWGQGTLVTVSS
VL: DIQMTQSPSSLSASVGDRVTITCRSSKSLLHRQGITYVYWYQQKPGKVPKLLIYRMSTLASGVPSRFSGSGSGTDFTLTISSLQPEDVATYYCGQLLENPYTFGQGTKLEIK
B2 had a Kd in the test with Axl of 0.386 nM. Also, the concentration for a half-maximal effect (EC50) in test [2] turned out to be 0.019 µg/mL.

B3: Ab302 (antibody, V domains shown)
VH: EVQLVESGGGLVKPGGSLKLSCAASGFTFSDYWMEWVRQAPGKGLEWVAEIRNKVNNYATYYGKSVKGRFTISRDDSKNTLYLQMNSLKTEDTAVYYCNTLRLFAYWGQGTLVTVSS
VL: DIQMTQSPSSLSASVGDRVTITCRSSKSLLHRQGITYVYWYQQKPGKVPKLLIYRMSTLASGVPSRFSGSGSGTDFTLTISSLQPEDVATYYCGQLLENPYTFGQGTKLEIK
B3: binding with Axl was put at a Kd of 0.705 nM. The EC50 in test [2] was 0.02 µg/mL.

B4: Ab305 (antibody, V domains shown)
VH: EVQLVESGGGLVQPGRSLRLSCTASGFTFSDYWMEWVRQAPGKGLEWVGEIRNKVNNYATYYGKSVKGRFTISRDDSKSIAYLQMNSLKTEDTAVYYCNTLRLFAYWGQGTLVTVSA
VL: DIQMTQSPSSLSASVGDRVTITCRSSKSLLHRQGITYVYWYQQKPGKVPKLLIYRMSTLASGVPSRFSGSGSGTDFTLTISSLQPEDVATYYCGQLLENPYTFGQGTKLEIK
Consider B4, for which the equilibrium dissociation constant (Kd) with Axl was found to be 1.55 nM. For the same molecule, in test [2], the concentration for a half-maximal effect (EC50) was determined as 0.019 µg/mL.

B5: Ab304 (antibody, V domains shown)
VH: EVQLVESGGGLVQPGGSLRLSCAASGFTFSDYWMEWVRQAPGKGLEWVGEIRNKVNNYATYYGKSVKGRFTISRDESKNSLYLQMNSLKTEDTAVYYCNTLRLFAYWGQGTTVTVSS
VL: DIQMTQSPSSLSASVGDRVTITCRSSKSLLHRQGITYVYWYQQKPGKVPKLLIYRMSTLASGVPSRFSGSGSGTDFTLTISSLQPEDVATYYCGQLLENPYTFGQGTKLEIK
For the molecule B5, binding with Axl was characterised by a dissociation constant (Kd) of 0.909 nM. Further, in test [2], the concentration for a half-maximal effect (EC50) came to 0.018 µg/mL.
